Assay [1] deals with Papain (E.C.3.4.22.2, from papaya latex) (papaya) (UniProt P00784).
Assay [2] shares this target. The note with it: natural protein.
The target is the same in assay [3]. The source holds these as a separate data set.
The target is the same in assay [4]. The source holds these as a separate data set.
For assay [5] the target is unchanged. The source holds these as a separate data set.
Assay [6] has the same target. This is another data set of the same source.
Assay [7] shares this target. The experiment in a line: enzyme inhibition kinetics.
Assay [8] shares this target. The source holds these as a separate data set.
Assay [9] shares this target. This is another data set of the same source.
Assay [10] has the same target. This is another data set of the same source.
For assay [11] the target is unchanged. The source holds these as a separate data set.
For assay [12] the target is unchanged. This is another data set of the same source.
Assay [13] shares this target. The source holds these as a separate data set.
Assay [14] shares this target. The note with it: natural protein. This is another data set of the same source.
Assay [15] has the same target. The note with it: natural protein. The source holds these as a separate data set.

As usually defined, the Ki is a measure of affinity in units of concentration, obtained from inhibition or displacement.

Read-outs that look alike come from different tables or passages of the source.

Sequence of Papain (E.C.3.4.22.2, from papaya latex) (papaya) (P00784 134-345): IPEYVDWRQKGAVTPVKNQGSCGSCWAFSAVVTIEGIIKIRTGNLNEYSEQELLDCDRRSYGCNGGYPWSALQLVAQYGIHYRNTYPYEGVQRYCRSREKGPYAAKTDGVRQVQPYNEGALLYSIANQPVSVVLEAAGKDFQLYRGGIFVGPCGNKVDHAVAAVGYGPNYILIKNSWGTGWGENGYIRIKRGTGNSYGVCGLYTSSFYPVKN

EgCYS showed a Ki in assay [1] of 6.4 nM.

The substance Glycine soja GsCYS came in with an inhibitory constant (Ki) in assay [2] of 4.3 nM.

Substance JcCYS registered an inhibitory constant (Ki) in assay [3] of 7 nM.

In assay [4], KsCYS displayed a Ki of 7.5 nM.

Substance LjCYS had a Ki in [5] of 13.5 nM.

In the case of MsCYS, in assay [6], the Ki is 7.1 nM.

As to “Physcomitrella patens C-tailed cystatin domain PpCYS (domain or fragment)”, the inhibition constant Ki in [7] was 1.2 nM.

In the case of PsCYS, in assay [8], the Ki amounted to 4.8 nM.

SiCYS registered an inhibitory constant (Ki) in [9] of 5.5 nM.

Consider “SlCYS8 SE hybrid P-1 (first inhibitory loop of PpCYS)”, for which, in assay [7], the Ki (papain), fold smaller than that of SlCYS8 stood at 7 fold.

In assay [7], “SlCYS8 SE hybrid P-N1 (N-terminal trunk and first inhibitory loop of PpCYS)” yielded a Ki (papain), fold smaller than that of SlCYS8 of 7 fold.

Regarding SlCYS9, the Ki in [10] came to 13.3 nM.

As to TcCYSB, the inhibition constant Ki in assay [11] worked out at 5.6 nM.

ThCYS had a Ki in assay [12] of 14 nM.

ZmCYSB: in assay [13], the inhibition constant (Ki) is 4.8 nM.

Take barley cystatin HaCYS3: the Ki in [14] came to 15.4 nM.

In assay [15], cucumber cystatin CsCYS yielded a Ki of 14.4 nM.

soybean GmCYSB (natural protein) registered a Ki in assay [7] of 38.2 nM.

As to “tomato multicystatin domain SlCYS7 (domain or fragment)”, the Ki in assay [7] is 2.7 nM.

Values taken from doi:10.1101/2021.07.22.453419.
